{"source": "paper PMC4509546", "about": "“Structural Characterization of the Chaetomium thermophilum TREX-2 Complex and its Interaction with the mRNA Nuclear Export Factor Mex67:Mtr2” (Structure(London, England:1993), 2015)", "molecules": {"B1": {"name": "GST-tagged ctSac3N^(1-210) (domain or fragment, Chaetomium thermophilum, UniProt G0SGL4 1-210, looked up)", "chain": "MMAPANNPFGAPPAQVNNPFASPAPSNQGSSVFGAPAQSTFGAPSSNNPFGASSAKPSGAPAANPFGAPIKNPFGASAQNAQNKPFGAPTAGNGSSLAAANPFGAASGQTSAFGSTPAGSAPQSKGSSRQPSPAGRQNQSGRQQANLVGAPQGPSGKKRTPSPFDTRQRTQAPSKRAQASEESDSDAMSGRKSKGKGFGGLKSQPPAANK", "notes": "also called GST-Sac3N; GST-Sac3; source: E. coli (general method), captured on an anti-GST antibody-coated CM5 chip"}}, "key": {"[1]": {"molecular_target": "GST-tagged ctSac3N^(1-210) (Chaetomium thermophilum) (UniProt G0SGL4)", "assay": "SPR; GST-tagged ligands captured by anti-GST antibody on CM5 chip; ctMex67:Mtr2 injected at 0.11-10 μM for 120 s, dissociation 600 s; BIAcore T200, 30 μl/min, 25°C, 20 mM Na-HEPES pH 7.5, 400 mM NaCl, 2 mM MgCl2, 5% glycerol, 0.01% NP-40; double exponential fits"}, "[2]": {"molecular_target": "GST-tagged ctNup145^(213-567) (Chaetomium thermophilum)", "assay": "SPR; GST-tagged ligands captured by anti-GST antibody on CM5 chip; ctMex67:Mtr2 injected at 0.11-10 μM for 120 s, dissociation 600 s; BIAcore T200, 30 μl/min, 25°C, 20 mM Na-HEPES pH 7.5, 400 mM NaCl, 2 mM MgCl2, 5% glycerol, 0.01% NP-40; double exponential fits"}, "[3]": {"molecular_target": "GST-tagged ctMlp1^(1797-1960) (Chaetomium thermophilum)", "sequence (G0SA56 1797-1960)": "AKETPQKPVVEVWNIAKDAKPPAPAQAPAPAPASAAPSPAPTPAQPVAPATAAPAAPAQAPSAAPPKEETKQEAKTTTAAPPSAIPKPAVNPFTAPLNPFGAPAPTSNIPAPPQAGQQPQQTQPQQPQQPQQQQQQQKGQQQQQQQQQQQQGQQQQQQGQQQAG", "assay": "SPR; GST-tagged ligands captured by anti-GST antibody on CM5 chip; ctMex67:Mtr2 injected at 0.11-10 μM for 120 s, dissociation 600 s; BIAcore T200, 30 μl/min, 25°C, 20 mM Na-HEPES pH 7.5, 400 mM NaCl, 2 mM MgCl2, 5% glycerol, 0.01% NP-40; double exponential fits"}, "[4]": {"molecular_target": "T1, C. thermophilum TREX-2 CID region complex (ctSac3^CID:ctSus1:ctCdc31) (Chaetomium thermophilum, UniProt G0SGL4 1086-1170; G0S6Y1 1-168; G0SAR7 1-177)", "T1 construct": "as m1; Sus1, Chaetomium thermophilum, locus CTHT_0027270; as m2; as m3; Used here for the SPR of 'the ctSac3 CID region' with Sac3N; also called ctSac3 CID region; CID region of TREX-2; source: E. coli, co-expressed, purified (GSH, TEV cleavage, size-exclusion chromatography); copies: 1 + 1 + 1", "T1 sequence 1": "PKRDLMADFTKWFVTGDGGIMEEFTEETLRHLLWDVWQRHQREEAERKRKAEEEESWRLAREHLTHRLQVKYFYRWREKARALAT", "T1 sequence 2": "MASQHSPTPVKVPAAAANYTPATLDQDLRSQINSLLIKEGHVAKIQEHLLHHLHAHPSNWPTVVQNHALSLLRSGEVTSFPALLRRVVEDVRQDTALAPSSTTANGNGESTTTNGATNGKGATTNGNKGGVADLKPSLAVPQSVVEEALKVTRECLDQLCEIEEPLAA", "T1 sequence 3": "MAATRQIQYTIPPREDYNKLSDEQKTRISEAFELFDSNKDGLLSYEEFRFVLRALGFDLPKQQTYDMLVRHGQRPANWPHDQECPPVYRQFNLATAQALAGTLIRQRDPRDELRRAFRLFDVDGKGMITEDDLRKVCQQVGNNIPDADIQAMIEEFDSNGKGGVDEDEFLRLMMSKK", "assay": "SPR; ctSac3 CID region with the Sac3N FG region; who was immobilised is not told in the text (Figure S2); general SPR conditions: BIAcore T200, 25°C, 20 mM Na-HEPES pH 7.5, 400 mM NaCl, 2 mM MgCl2, 5% glycerol, 0.01% NP-40", "settings": "both partners purified"}}}
{"molecule": "ctMex67:Mtr2 complex", "values": [{"measurement": "KD1", "setting": "[1]", "value": 39, "unit": "nM"}, {"measurement": "KD2", "setting": "[1]", "value": 148, "unit": "nM"}, {"measurement": "koff1", "setting": "[1]", "value": 0.073, "unit": "s⁻¹"}, {"measurement": "koff2", "setting": "[1]", "value": 0.0049, "unit": "s⁻¹"}, {"measurement": "kon1", "setting": "[1]", "value": "1.9e+06", "unit": "M⁻¹ s⁻¹"}, {"measurement": "kon2", "setting": "[1]", "value": 33000, "unit": "M⁻¹ s⁻¹"}, {"measurement": "KD1", "setting": "[2]", "value": 238, "unit": "nM"}, {"measurement": "KD2", "setting": "[2]", "value": 264, "unit": "nM"}, {"measurement": "koff1", "setting": "[2]", "value": 0.071, "unit": "s⁻¹"}, {"measurement": "koff2", "setting": "[2]", "value": 0.0074, "unit": "s⁻¹"}, {"measurement": "kon1", "setting": "[2]", "value": 300000, "unit": "M⁻¹ s⁻¹"}, {"measurement": "kon2", "setting": "[2]", "value": 28000, "unit": "M⁻¹ s⁻¹"}, {"measurement": "KD1", "setting": "[3]", "value": 309, "unit": "nM"}, {"measurement": "KD2", "setting": "[3]", "value": 419, "unit": "nM"}, {"measurement": "koff1", "setting": "[3]", "value": 0.071, "unit": "s⁻¹"}, {"measurement": "koff2", "setting": "[3]", "value": 0.0088, "unit": "s⁻¹"}, {"measurement": "kon1", "setting": "[3]", "value": 230000, "unit": "M⁻¹ s⁻¹"}, {"measurement": "kon2", "setting": "[3]", "value": 21000, "unit": "M⁻¹ s⁻¹"}]}
{"molecule": "B1", "values": [{"measurement": "Kd", "setting": "[4]", "value": 2200, "unit": "nM"}, {"measurement": "koff", "setting": "[4]", "value": 0.00052, "unit": "s⁻¹"}, {"measurement": "kon", "setting": "[4]", "value": 235, "unit": "M⁻¹ s⁻¹"}]}
